In patent US20260242467A1:

Target: NKG2A (human) (UniProt P26715)
Assay: flow cytometry on primary NK cells, 0 µM mabkine control of the competition assay

UniProt P26715, sequence (P26715 whole entry): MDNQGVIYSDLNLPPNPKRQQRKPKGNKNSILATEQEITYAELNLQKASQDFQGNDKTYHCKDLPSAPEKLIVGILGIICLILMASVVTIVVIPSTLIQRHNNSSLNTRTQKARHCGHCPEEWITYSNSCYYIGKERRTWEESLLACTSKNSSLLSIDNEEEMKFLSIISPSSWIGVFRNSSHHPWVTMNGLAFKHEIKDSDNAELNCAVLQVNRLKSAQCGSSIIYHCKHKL

% of CD56+ cells stained (without mabkine): 26.5%
Substance: anti-NKG2A (S19004C) from Biolegend (antibody)
